{"source": "patent US20220289837A1", "about": "“Cystic Fibrosis Transmembrane Conductance Regulator Stabilizing Agents” (VIB VZW, priority 2019, published 2022)", "key": {"2PT-NBD1 [1]": {"target": "T1, 2PT-NBD1 (Homo sapiens, UniProt P13569, A534P/I539T/S492P/V470M)", "T1 construct": "2PT-NBD1 mutants (residues 387-646 containing the mutations S492P, A534P, I539T); His6-SUMO (N, cleaved yes); made in house; host or cells: Escherichia coli BL21(DE3) pLysS", "T1 sequence (P13569 388-646 V470M/S492P/A534P/I539T)": "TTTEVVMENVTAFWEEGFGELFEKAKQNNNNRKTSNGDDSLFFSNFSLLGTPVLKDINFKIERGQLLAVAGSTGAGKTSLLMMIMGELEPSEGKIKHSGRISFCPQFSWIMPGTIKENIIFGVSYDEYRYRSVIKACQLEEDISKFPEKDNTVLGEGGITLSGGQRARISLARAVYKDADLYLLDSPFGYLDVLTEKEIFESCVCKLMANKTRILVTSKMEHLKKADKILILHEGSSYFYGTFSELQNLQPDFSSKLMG", "test": "Isothermal titration calorimetry (ITC) of nanobodies into 2PT-NBD1", "type": "binding", "settings": "20° C., 2PT-NBD1, mean±SD (n=3)", "experimental": "Interactions between nanobodies and 2PT-NBD1 was carried out on NanoITC system (TA Instruments) in 0.165 ml cells at 20° C., 300 rpm syringe stirring. Proteins were extensively dialyzed in 20 mM Hepes buffer pH 7.5, 150 mM NaCl, 10% (w/v) glycerol, 10% (w/v) ethylene glycol, 2 mM ATP and 3 mM MgCl2 for 16 h at 4° C. Heat of dilution from control experiments of each nanobody titrated into buffer was subtracted from the titration into 2PT-NBD1. Data were integrated analyzed with Origin 7.0 software (Origin Lab Corp.).\n(§1) Affinity constants (KD) and thermodynamic parameters from ITC experiments were determined using one-site binding model with MicroCal Origin 7.0 software (Origin Lab Corp.). Dose response ELISA curves of each Nb binding to either isolated NBD1 or purified FL-CFTR were fitted using the sigmoidal dose-response equation from GraphPad Prism 3. DSC data were analyzed with the MicroCal Origin 7.0 software (Origin Lab Corp.), from which the unfolding temperature (Tm) was obtained."}, "F508del-2PT-NBD1 [2]": {"target": "T2, F508del-2PT-NBD1 (Homo sapiens, UniProt P13569, A534P/DEL508-508/I539T/S492P/V470M)", "T2 construct": "His6-SUMO (N, cleaved yes); made in house; host or cells: Escherichia coli BL21(DE3) pLysS", "T2 sequence (P13569 with tags, fused parts or gaps V470M/S492P/DEL508-508/A534P/I539T limits assumed)": "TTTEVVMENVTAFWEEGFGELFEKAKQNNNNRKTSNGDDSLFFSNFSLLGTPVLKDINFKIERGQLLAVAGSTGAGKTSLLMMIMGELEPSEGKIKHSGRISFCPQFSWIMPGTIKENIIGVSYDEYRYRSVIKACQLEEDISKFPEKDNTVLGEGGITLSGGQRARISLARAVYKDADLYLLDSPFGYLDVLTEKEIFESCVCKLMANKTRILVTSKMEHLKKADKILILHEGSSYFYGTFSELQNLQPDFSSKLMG", "test": "NBD1 ELISA dose-response, nanobody binding to immobilized F508del-2PT-NBD1", "settings": "F508del-2PT-NBD1 versus 2PT-NBD1", "experimental": "For dose-response assays, Nunc MaxiSorp 96-well plates (ThermoScientific), were coated with 5 μg/ml NeutrAvidin Biotin-Binding protein (ThermoScientific) overnight at 4° C. and blocked 2 h at room temperature (RT) with 2% milk in phosphate-buffered saline (PBS). Each new reagent addition was preceded by three washes with 200 μl of NBD1 buffer (20 mM HEPES pH 7.5, 150 mM NaCl, and 10% (w/v) glycerol, 10% (w/v) ethylene glycol, 2 mM ATP, 3 mM MgCl2). Then, biotinylated purified NBD1 proteins at 5 μg/ml were immobilized 30 min at RT followed by 1 h RT incubation with 100 μl various concentrations (0-20 μg/ml) of purified nanobodies. Signal detection was followed using His-tag specific antibody (Invitrogen, catalogue number: MA1-135, 1:3000 dilution) to detect the nanobodies and secondary antibody anti-mouse coupled to horse radish peroxidase (HRP) (Millipore, catalogue number: AP308P, 1:5000 dilution). 50 μl of 1-Step UltraTMB-ELISA (ThermoScientific) was used as a substrate for the peroxidase and intensity of the reaction was proportional to absorbance measured at 450 nm with SynergyMx (BioTek) after addition of 50 μl H2SO4 at 1M.\nas §1"}, "wt-CFTR [3]": {"target": "T3, wt-CFTR (Homo sapiens, UniProt P13569)", "T3 sequence (P13569 whole entry)": "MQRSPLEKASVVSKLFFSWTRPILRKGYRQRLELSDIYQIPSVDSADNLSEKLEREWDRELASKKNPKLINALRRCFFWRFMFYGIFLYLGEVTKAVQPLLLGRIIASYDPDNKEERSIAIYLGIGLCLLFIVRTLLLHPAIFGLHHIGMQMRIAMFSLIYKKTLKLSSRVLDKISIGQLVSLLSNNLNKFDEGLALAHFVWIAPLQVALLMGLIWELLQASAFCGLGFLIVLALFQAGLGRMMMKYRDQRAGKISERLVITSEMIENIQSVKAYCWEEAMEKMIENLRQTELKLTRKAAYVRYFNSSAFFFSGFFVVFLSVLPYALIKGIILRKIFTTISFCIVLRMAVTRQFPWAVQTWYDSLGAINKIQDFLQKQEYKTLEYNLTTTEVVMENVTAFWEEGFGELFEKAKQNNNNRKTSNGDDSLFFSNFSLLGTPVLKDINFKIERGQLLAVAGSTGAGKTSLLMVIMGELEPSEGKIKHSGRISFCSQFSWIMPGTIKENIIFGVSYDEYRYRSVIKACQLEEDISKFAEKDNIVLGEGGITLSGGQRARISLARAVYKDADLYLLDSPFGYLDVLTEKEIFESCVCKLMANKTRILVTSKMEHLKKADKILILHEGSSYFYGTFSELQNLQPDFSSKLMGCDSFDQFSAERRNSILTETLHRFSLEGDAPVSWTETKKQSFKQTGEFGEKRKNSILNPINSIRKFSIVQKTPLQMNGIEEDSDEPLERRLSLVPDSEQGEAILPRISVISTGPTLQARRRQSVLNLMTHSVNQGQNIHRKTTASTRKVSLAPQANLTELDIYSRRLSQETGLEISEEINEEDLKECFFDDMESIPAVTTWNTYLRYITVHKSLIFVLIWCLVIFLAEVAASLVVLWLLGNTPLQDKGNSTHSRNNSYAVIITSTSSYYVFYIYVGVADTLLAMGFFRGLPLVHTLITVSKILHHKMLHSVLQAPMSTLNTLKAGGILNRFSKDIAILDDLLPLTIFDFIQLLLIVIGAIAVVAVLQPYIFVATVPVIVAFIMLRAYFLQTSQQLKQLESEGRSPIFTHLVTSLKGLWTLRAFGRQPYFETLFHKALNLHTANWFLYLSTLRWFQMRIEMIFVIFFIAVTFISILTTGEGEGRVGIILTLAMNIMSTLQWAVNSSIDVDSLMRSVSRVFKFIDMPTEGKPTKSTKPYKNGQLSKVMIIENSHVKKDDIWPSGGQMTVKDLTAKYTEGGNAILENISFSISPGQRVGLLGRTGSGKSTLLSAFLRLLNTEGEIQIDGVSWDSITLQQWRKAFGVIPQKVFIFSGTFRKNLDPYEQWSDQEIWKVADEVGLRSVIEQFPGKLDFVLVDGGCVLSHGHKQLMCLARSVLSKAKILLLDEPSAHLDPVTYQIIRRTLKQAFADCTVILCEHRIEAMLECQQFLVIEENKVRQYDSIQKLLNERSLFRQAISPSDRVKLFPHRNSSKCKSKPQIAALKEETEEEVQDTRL", "test": "Flow cytometry on permeabilized BHK-21 cells overexpressing wt-CFTR", "type": "cell-based", "set-up": "expressed in transfected cells", "settings": "compared to negative control nanobody", "experimental": "(§2) Parental BHK-21 cells (ATCC; CCL-10) and cells stably overexpressing human wt-CFTR^[43,44,47] or 2PT-F508del-CFTR, as described above, were permeabilized with 0.01% n-Dodecyl-β-D-Maltopyranoside β-DDM—Inalco) at least for 2 h on ice. In the meantime, cells were incubated with 50 μg/ml nanobodies and DRAQ7 (0.3 μM—Biostatus) to monitor the permeabilization state. Nanobody binding was detected by using His-tag specific antibody (Invitrogen, catalogue number MA1-135, 1 μg/ml) or Myc-tag specific antibody (Invitrogen, catalogue number 13-2500, 2 μg/ml) and then anti-mouse-Alexa Fluor 488 (Invitrogen, catalogue number A11001, 1.3 μg/ml) at least for 30 min on ice. Cells were washed one time between each step by centrifugation (200×g for 5 min at 4° C.). All incubations (100 μl) and washes (1.5 ml) were performed in PBS with 6% fetal bovine serum (FBS) and 0.01%13-DDM on ice. Cells fluorescence was measured with Gallios Flow Cytometer (Beckman Coulter). Data were analyzed with Kaluza software."}, "wt-CFTR [4]": {"target": "T3, wt-CFTR", "test": "CFTR pull-down from solubilized BHK-21 cells with immunoblot", "type": "binding", "set-up": "expressed in transfected cells", "settings": "immunoblot with mAb 596", "experimental": "Human wt-CFTR was extracted from BHK-21 cells pellet by solubilization with 1% DMNG in PBS with proteases inhibitors for 1 h at 4° C. The cells debris were removed by centrifugation (16,000×g for 30 min at 4° C.). Supernatant was diluted 10 times in PBS with proteases inhibitors plus 10 mM imidazole and incubated at least for 30 min on HisPur Ni-NTA Resin (Thermo Scientific) pre-loaded with nanobodies. Resin was washed with 40 column volumes of PBS with 300 mM NaCl. Nanobodies were eluted with 200 mM imidazole in PBS. Presence of CFTR in each sample was detected by SDS-PAGE and immuno-blotting.\nCell extracts were separated by SDS-PAGE on 7.5% polyacrylamide gel and transferred to nitrocellulose membrane (Bio-Rad) for immunodetection. After blocking for 1 h with 5% bovine serum albumin (BSA) in Tris-buffered saline added 0.05% Tween-20 (TBST), CFTR was detected using monoclonal antibody mAb 596, IgG2b (CFTR Antibody Distribution Program, dilution 1:46) for 1 h in blocking buffer. Blot was washed 3 times 5 min and incubated with anti-mouse-HRP antibody (Millipore, catalogue number: AP308P, 0.2 μg/ml) for 1 h in TBST. Membrane was washed 3 times for 5 min. CFTR was visualized by chemiluminescence using Luminata Forte Western HRP Substrate (Millipore) and detected with ImageQuant 400 (GE Healthcare)."}, "F508del-2PT-NBD1 [5]": {"target": "T2, F508del-2PT-NBD1", "test": "Thermal shift assay (DSF) of F508del-2PT-NBD1", "type": "binding", "experimental": "(§3) Solutions of either 2PT-NBD1 or F508del-2PT-NBD1 (10 μM final concentration), nanobodies (30 μM final concentration) and 2.5× or 5× concentrated SYPRO Orange Protein Stain (Molecular Probes) diluted in 20 mM HEPES pH 7.5, 150 mM NaCl, 3 mM MgCl2, 2 mM ATP and 10% (w/v) glycerol, 10% (w/v) ethylene glycol, were added to the wells of a 96-well PCR plates type BR white (VWR) in a final volume of 25 μl. Plates were sealed with EasySeal sheets (Molecular dimensions) and spun 2 min at 900× g. SYPRO orange fluorescence was monitored in CFX96 Touch Real-Time PCR Detection System (Bio-Rad) using FRET scan mode from 10 to 80° C. in increments of either 1° C. or 0.2° C."}, "[6]": {"target": "T4, stab-CFTR: 2PT/ΔRI/R1048A_1172X (Homo sapiens, UniProt P13569, A534P/DEL405-436/I539T/R1048A/S492P)", "T4 construct": "made in house; host or cells: BHK-21 cells (ATCC CCL-10), pNUT vector", "T4 sequence (P13569 with tags, fused parts or gaps DEL405-436/S492P/A534P/I539T/R1048A limits assumed)": "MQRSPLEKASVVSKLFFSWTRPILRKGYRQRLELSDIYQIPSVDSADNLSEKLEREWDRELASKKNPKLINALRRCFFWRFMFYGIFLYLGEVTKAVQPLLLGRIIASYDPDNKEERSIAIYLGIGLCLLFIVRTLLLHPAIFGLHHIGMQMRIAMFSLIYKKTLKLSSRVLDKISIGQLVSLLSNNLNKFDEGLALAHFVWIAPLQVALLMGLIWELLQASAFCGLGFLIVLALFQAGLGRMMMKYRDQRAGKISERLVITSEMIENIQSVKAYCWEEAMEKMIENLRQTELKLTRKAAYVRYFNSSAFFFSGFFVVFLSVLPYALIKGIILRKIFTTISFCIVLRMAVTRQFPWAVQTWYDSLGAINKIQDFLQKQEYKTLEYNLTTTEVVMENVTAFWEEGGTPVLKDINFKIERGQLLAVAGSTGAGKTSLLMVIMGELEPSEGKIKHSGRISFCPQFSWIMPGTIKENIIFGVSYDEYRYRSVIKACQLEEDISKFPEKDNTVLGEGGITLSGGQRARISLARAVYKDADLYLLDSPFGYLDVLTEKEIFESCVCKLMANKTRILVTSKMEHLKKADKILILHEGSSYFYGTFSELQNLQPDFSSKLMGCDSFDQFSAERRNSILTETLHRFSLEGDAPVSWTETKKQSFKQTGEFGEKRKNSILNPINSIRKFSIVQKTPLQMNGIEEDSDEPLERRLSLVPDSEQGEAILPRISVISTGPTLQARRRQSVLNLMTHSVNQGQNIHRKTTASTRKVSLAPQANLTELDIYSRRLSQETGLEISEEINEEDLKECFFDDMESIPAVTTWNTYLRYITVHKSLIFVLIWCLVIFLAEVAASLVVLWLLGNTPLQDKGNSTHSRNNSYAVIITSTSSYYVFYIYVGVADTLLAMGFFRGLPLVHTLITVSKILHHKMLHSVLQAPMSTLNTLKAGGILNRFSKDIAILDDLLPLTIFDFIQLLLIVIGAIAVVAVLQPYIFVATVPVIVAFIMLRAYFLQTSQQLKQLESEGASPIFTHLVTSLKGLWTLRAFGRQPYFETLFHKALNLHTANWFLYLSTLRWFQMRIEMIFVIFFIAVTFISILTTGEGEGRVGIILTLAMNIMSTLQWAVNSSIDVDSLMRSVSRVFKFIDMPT", "test": "NanoDSF thermostability of stab-CFTR", "type": "binding", "settings": "versus stab-CFTR alone", "experimental": "Purified stabilized human CFTR (stab-CFTR: 2PT/ΔRI/R1048A_1172X) was concentrated to 0.5 mg/ml and mixed with 0.1 mg/ml nanobody (^˜[…]) and capillaries were loaded with a volume of 10 The capillaries were placed into trays of Prometheus NT.48 (Nanotemper) and subjected to the fluorescence analysis. The emission of fluorescent radiation with the wavelengths of 330 nm and 350 nm was measured with the temperature changes from 25 to 85° C., with the rate of 1° C. min-1. The first derivative of 350 nm fluorescence was used to determine the melting temperature of the proteins."}, "2PT-NBD1 [7]": {"target": "T1, 2PT-NBD1", "test": "Thermal shift assay (DSF) of 2PT-NBD1", "type": "binding", "settings": "versus isolated 2PT-NBD1", "experimental": "as §3"}, "parental BHK-21 cells": {"test_system": "parental BHK-21 cells", "test": "Flow cytometry on parental BHK-21 cells", "type": "cell-based, hamster", "settings": "compared to negative control nanobody", "experimental": "as §2"}}, "data": [{"molecule": "T4: nanobody, SEQ ID NO:6, binds epitope 2 including F508, stabilizes wild type CFTR (protein, T4 Nanobody amino acid sequence) VHH: QVQLQESGGGLVQAGGSLRLSCAASGSTFAIIAMGWYRQAPGKQRELVAVISTGDTRYADSVKGRFTISRDNAKNTVYLQMDSLRPEDTAVYYCNAAVQVRDYRNYWGQGTQVTVSS", "values": [{"measurement": "Kd", "setting": "2PT-NBD1 [1]", "result": "37.9 ± 7", "unit": "nM"}, {"measurement": "effect of F508del mutation on binding", "setting": "F508del-2PT-NBD1 [2]", "result": "drastically affected"}, {"measurement": "labelling of BHK-21 cells overexpressing wt-CFTR", "setting": "wt-CFTR [3]", "result": "increased labelling"}, {"measurement": "pull-down of cellular CFTR, electrophoresis pattern (mature band C)", "setting": "wt-CFTR [4]", "result": "also observed"}, {"measurement": "stabilization of F508del-2PT-NBD1", "setting": "F508del-2PT-NBD1 [5]", "result": "did not stabilize"}, {"measurement": "thermostabilization of stab-CFTR (Tm increase)", "setting": "[6]", "result": 8, "unit": "°C"}, {"measurement": "increase of Tm of 2PT-NBD1", "setting": "2PT-NBD1 [7]", "result": 12.5, "unit": "°C"}, {"measurement": "labelling of parental BHK-21 cells", "setting": "parental BHK-21 cells", "result": "no difference in labelling"}]}]}
